{
  "source": "paper PMC9142731",
  "about": "(Virology Journal, 2022)",
  "binders": {"B1": {"name": "P301-F7 (antibody, V domains shown)", "VH": "QLQLQESGPGLVKPSETLSLTCTVSGGSISSTSYYWGWIRQPPGKGLEWIGSIYYSGSTYYNPSLKSRVTISVDTSKNQFSLKLSSVTAADTAVYYCARFSLYCSSTSCYENWFDPWGQGTLVTVSS", "VL": "QSVLTQPPSVSAAPGQKVTISCSGSSSNIGNNYVSWYQQLPGTAPKLLIYDNNKRPSGIPDRFSGSKSGTSATLGITGLQTGDEADYYCGTWDSSLSAGQVVFGGGTKLTVL", "notes": "source: 293 F cells, transient transfection, purified (Protein A beads)"}},
  "settings_in_all_cases": "both partners purified",
  "key": {"[1]": {"target": "T1, SARS-CoV-2 nucleocapsid protein (WT), recombinant (Severe acute respiratory syndrome …, UniProt P0DTC9)", "T1 construct": "also called SARS-CoV-2 NP; WT NP; source: bought: Sino Biological; not shown: His tag, C-terminal, kept", "experiment": "SPR"}, "[2]": {"target": "T2, NL63 nucleocapsid protein, recombinant (Human coronavirus NL63 (HCoV-NL63)., UniProt Q6Q1R8)", "T2 construct": "also called NL63 NP; source: bought: Sino Biological", "experiment": "ELISA"}, "[3]": {"target": "T3, MERS-CoV nucleocapsid protein, recombinant (MERS-CoV, strain , UniProt K9N4V7)", "T3 construct": "also called MERS-CoV NP; source: bought: Sino Biological", "experiment": "ELISA"}, "[4]": {"target": "T4, HKU1 nucleocapsid protein, recombinant (Human coronavirus HKU1 (isolate N1) …, UniProt Q5MQC6)", "T4 construct": "also called HKU1 NP; source: bought: Sino Biological", "experiment": "ELISA"}, "[5]": {"target": "T5, OC43 nucleocapsid protein, recombinant (Human coronavirus OC43 (HCoV-OC43)., UniProt P33469)", "T5 construct": "also called OC43 NP; source: bought: Sino Biological", "experiment": "ELISA"}, "[6]": {"target": "T6, SARS-CoV nucleocapsid protein, recombinant (Severe acute respiratory syndrome …, UniProt P59595)", "T6 construct": "also called SARS-CoV NP; source: bought: Sino Biological"}, "[7]": {"target": "T7, 229E nucleocapsid protein, recombinant (Human coronavirus 229E (HCoV-229E)., UniProt P15130)", "T7 construct": "also called 229E NP; source: bought: Sino Biological"}},
  "data": [
    {"binder": "B1", "values": [
      {"measurement": "Kd", "setting": "[1]", "result": 0.0133, "unit": "µM"},
      {"measurement": "binding result", "setting": "[2]", "result": "no binding"},
      {"measurement": "binding result", "setting": "[3]", "result": "no binding"},
      {"measurement": "binding result", "setting": "[4]", "result": "no binding"},
      {"measurement": "binding result", "setting": "[5]", "result": "no binding"},
      {"measurement": "Kd", "setting": "[6]", "result": 0.0149, "unit": "µM"},
      {"measurement": "binding result", "setting": "[7]", "result": "no binding"}
    ]}
  ]
}
